Series [1] deals with His6-TRX-PfPPR1 (Plasmodium falciparum apicoplast pentatricopeptide repeat protein PPR1, minus the bipartite leader, with N-terminal TRX-His6 tag) (Plasmodium falciparum). Briefly: SEC; S200 10/300 analytical gel filtration column in 50 mM Tris pH 8.0, 200 mM NaCl, 5 mM DTT; sample in 10 mM HEPES pH 7.5, 20 mM KCl, 1 mM MgCl2, 1 mM DTT, 15 min at room temperature; control without RNA (with RNA 4 or RNA 5 the dimer eluted earlier, with RNA bound).

Series [2] concerns the target PfPPR1 minus the His6-TRX tag (tag cleaved by HRV 3C protease) (Plasmodium falciparum). Briefly: AUC; sedimentation velocity, PfPPR1 minus His6-TRX tag at 1.8 mg/mL, continuous c(s) distribution model.
The next series addresses T1, His6-TRX-PfPPR1 (Plasmodium falciparum, UniProt Q8IM30 121-608).
T1 sequence: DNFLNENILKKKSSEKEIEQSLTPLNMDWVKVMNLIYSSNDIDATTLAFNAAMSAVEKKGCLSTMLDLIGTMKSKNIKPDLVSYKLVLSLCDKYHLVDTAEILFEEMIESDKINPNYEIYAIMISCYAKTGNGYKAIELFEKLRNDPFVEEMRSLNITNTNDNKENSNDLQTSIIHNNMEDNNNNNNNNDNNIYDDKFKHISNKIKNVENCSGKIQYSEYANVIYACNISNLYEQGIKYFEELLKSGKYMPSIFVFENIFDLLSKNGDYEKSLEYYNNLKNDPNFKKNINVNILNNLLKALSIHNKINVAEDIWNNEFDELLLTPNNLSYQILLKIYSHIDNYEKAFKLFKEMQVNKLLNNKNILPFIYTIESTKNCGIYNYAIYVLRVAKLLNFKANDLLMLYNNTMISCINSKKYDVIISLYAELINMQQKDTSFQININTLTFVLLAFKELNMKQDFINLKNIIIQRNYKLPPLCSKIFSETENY
Briefly: pull-down; Pull-down: 10 mM HEPES pH 7.5, 20 mM KCl, 1 mM MgCl2, 1 mM DTT, room temperature 15 min; 400 nM biotinylated RNA, 800 nM protein (Results state 1:1 molar). Gel. The note with it: protein: recombinant; tags: N-terminal TRX-His6 (HRV 3C cleavable); chain copies: 2; label: 3' biotin (pull-down).

A word on the stoichiometry N: it is a count of units in the complex or per binding partner. Molecule “His6-TRX-PfPPR1 (Plasmodium falciparum apicoplast pentatricopeptide repeat protein PPR1, minus the bipartite leader, with N-terminal TRX-His6 tag) (natural protein)” returned a stoichiometry N in series [1] of 2.
For the molecule “PfPPR1 minus the His6-TRX tag (tag cleaved by HRV 3C protease) (natural protein)”, the stoichiometry N in series [2] was 2.

B1: RNA oligo 3 (ssRNA)
RNA: ACGACAUGACGAGGUCGGA
As for B1, the binding result in the series with His6-TRX-PfPPR1 is listed as “no binding”.

B2: RNA oligo 2 (ssRNA)
RNA: ACGACAUUAUAAGGUCGGA
In the case of B2, the binding result in the series with His6-TRX-PfPPR1 is reported as “binds”.

B3: RNA oligo 1 (ssRNA)
RNA: ACGACAUUAUAUGGUCGGA
Regarding B3, in the series with His6-TRX-PfPPR1, the binding result is “binds”.

The values above are taken from article PMC6899631, “An essential pentatricopeptide repeat protein in the apicomplexan remnant chloroplast”.
